These results are taken from article PMC2217137.

The target of this assay is rabbit skeletal muscle Ca2+ release channel (ryanodine receptor), purified 30 S complex (rabbit) (UniProt P11716). Nature of the assay: single-channel recording in planar lipid bilayers.

Regarding “imperatoxin activator (IpTxa), native, purified from Pandinus imperator venom (from UniProt P59868 1-33) (peptide)”, the Kd was determined as 18.2 nM, the time constant of dwell times in the burst (toxin-free) state at 100 nM IpTxa is 965 ms and the time constant of dwell times in the subconductance (toxin-bound) state is 3380 ms.
“imperatoxin activator (IpTxa), synthetic (from UniProt P59868 1-33) (peptide)” returned a K m (of P substate against [IpTxa]) of 2 nM.

By Kd is commonly meant the constant that tells how readily two partners part at equilibrium. Lower therefore signals a tighter complex.
